Article PMC5023282, “A rapid fluorometric assay for the S-malonyltransacylase FabD and other sulfhydryl utilizing enzymes” (Journal of Biological Methods, 2016)

Substrate: CC(=O)SCCNC(=O)CCNC(=O)[C@H](O)C(C)(C)COP(=O)(O)OP(=O)(O)OC[C@H]1O[C@@H](n2cnc3c(N)ncnc32)[C@H](O)[C@@H]1OP(=O)(O)O
Experiment: CPM fluorescence detection of released CoA-SH, initial rates
Assay type: biochemical, Escherichia coli
Conditions: malonyl-ACP 80 µM (about 40% pure; table note 75 µM), 20 mM phosphate, 50 mM KCl, 1 mg/ml BSA, pH 7.0, 30°C
Description: CPM fluorescence detection of released CoA-SH, initial rates on FabH (β-ketoacyl-ACP synthase III; keto-acylsynthase III)

B1: FabH (β-ketoacyl-ACP synthase III; keto-acylsynthase III) (Escherichia coli K-12) (protein)
chain: MYTKIIGTGSYLPEQVRTNADLEKMVDTSDEWIVTRTGIRERHIAAPNETVSTMGFEAATRAIEMAGIEKDQIGLIVVATTSATHAFPSAACQIQSMLGIKGCPAFDVAAACAGFTYALSVADQYVKSGAVKYALVVGSDVLARTCDPTDRGTIIIFGDGAGAAVLAASEEPGIISTHLHADGSYGELLTLPNADRVNPENSIHLTMAGNEVFKVAVTELAHIVDETLAANNLDRSQLDWLVPHQANLRIISATAKKLGMSMDNVVVTLDRHGNTSAASVPCALDEAVRDGRIKPGQLVLLEAFGGGFTWGSALVRF
notes: purified by anion exchange, blue sepharose and S200 columns, as described previously; no tag mentioned
- Km: 60 ± 20 µM
